Experimental data reported in the DeepSol protein solubility set.

test: soluble on expression in E. coli; label from the status in PepcDB or PDB records

Sequence | soluble on expression in E. coli
MTMQHASSAGRRPAVPVYLKIRNAIRDAISNAAYAPGDLLPSETELAKRYATTRATVVHAIQQLVFEGLVERKRGVGSFVAQPKLSSTVDTHRVAYFEQDAFARDLTYEVIGYGKAVVEDHVRDTLRLGRGEPVYRLQRLRLLLGKPIAFELRYLPALVGARLTAEMLARRSVQSLLDEEVGMPITRFLNAVRVALVPAAVARHLQLEKGRPVMVRTHTFLDAADTPLLWGETLYREEYQINYVLTAMQAPDEAVGGRPRKGAGRA | not soluble
MTNLFLCSLRFQFVVVCTRYDQSVGFSTEEHNIVEDASGFVTQHSSGSTLNESSRSCLQLVIVSQRNLEVYLGRDNVETLRKIGEANRGEFSKDFSVWCKTVFESMSNAYVSSLETEQSNVTSRVTRNIRPRTNEENRMQMEELQTAMQVERSVAASSSLSSSFDWNAFLRDRCGLSEEDVAYCLPKLSFIGMIDLSGVTTEFLLKCGIDSPSLRLRIMLGIRQLLAK | not soluble
MTNLFVRSGISFVDRSEVLTHIGNEMLAKGVVHDTWPQALIAREAEFPTGIMLEQHAIAIPHCEAIHAKSSAIYLLRPTNKVHFQQADDDNDVAVSLVIALIVENPQQQLKLLRCLFGKLQQPDIVETLITLPETQLKEYFTKYVLDSDE | soluble
MTNLPMNKLIDEVNNELSVAINKSVMDTQLEESMLYSLNAGGKRIRPVLLLLTLDSLNTEYELGMKSAIALEMIHTYSLIHDDLPAMDNDDYRRGKLTNHKVYGEWTAILAGDALLTKAFELISSDDRLTDEVKIKVLQRLSIASGHVGMVGGQMLDMQSEGQPIDLETLEMIHKTKTGALLTFAVMSAADIANVDDTTKEHLESYSYHLGMMFQIKDDLLDCYGDEAKLGKKVGSDLENNKSTYVSLLGKDGAEDKLTYHRDAAVDELTQIDEQFNTKHLLEIVDLFYSRDHKGHHHHHH | soluble
MTNSSSSKKQAQDQPETSEPTLKSLKTKMTKSDEKQKKLKDIEISVPIVYGNVAFWLGKKASEYQSHKWAVYVRGATNEDISVVVKKVVFQLHSSFNSPTRVIEEPPFEVSESGWGEFEIAMTLHFHSDVCDKPLSLYHHLKLYPEDESGPLTMKKPVVVESYDEIVFPDPSESFLARVQNHPALTFPRLPSGYNLPAPMQVEDTGKKKRGDTKDHSLGQWFMSFSEADELLQLAAARQQVQAHIAKLRRQISLLEGQNQTVKTGSDL | not soluble
MTNTSFDNSTIVVGVAGGIAAYKSCHVVRGFKEDGANVVVVPTSAALNFVGKATFEALSGNPVSTTVFDAVDEVRHVNVGQHADLIVVAPATADLIARVAMGRADDLLTATLLVATCPIVLVPAMHAEMWSNAATRENVATLRRRGIIVMDPAHGRLTGADTGPGRLPDSDQIIDFAKTVARTKVMPRDLVGKKVL | not soluble
MTPDLKTSPPPATLFSEDAEAIAKYLDESAKNGRDSGKNKSTQIRRFYDELVGWQERIGTDEQKFRDYAAFIHMLNAKAAYAQGRNLVTREFVQWLRDCIKQIDGPRTLNHFRLHFEAMIGFLKAIRG | not soluble
MTPLSALTSNPAPSPPPKFALGKCPATAIHVVSVLRPNRQRFCYEKTDAGDLIPHKCLICQPILTEKHISPYYAVYSDLLEDFVLFGYNTMTGKMEQFIYAFKTDCFVEVNRPEIKYNPAFLVKGNVVVALNGPEGELVVIERDCRGLLSKESTSYGQFRTLPTAALRTLTLQDLERDRWDRAANSDEVKISSGNESFDRLYAEYQKNLPRFQVRQCLHLNKEFLCVYSKTSGDYTRLEYIDETGDFQKISCTLCTCEVTESNLIPLYVERNASELVIHVHNTENNQIEQYIYDVRTFGFVQVKRNLVYDPKKITSGLNLFMAENIDNRKVYMIMRGRDGRLQKETSGSGGFEKMQPVAVKTFQVQWVEMKTEFEKKKASTERVEPQHPVQTEGEDIMETVLAMVESFNCDLRKELGLTQDQEIPRKAPRVESAETEENIVKNLEKLQIAKDPEEPTTAASEGGNTYGYQELDDTMSEGLLEKEAESKHQDANEPEPVKNVTYEPDVAAMDKKKKRRELKSRLNKINAQIDELEKRRMERAGKKQVVSSSVPSEEAAQVEAPASPALAENTNQISNEETPKIDIFEGYNGSFLFGTNTSKEWIVEDIRNHMVGKLLKAFWPRIQNVEEMNGELFKKLIANARKCETEILEASNDRDEYYRLMQLTVDQILKKTLKKDQRATEHNHQQPTQSSDELAKNHEKN | not soluble
MTPLSSPLSQYWQTVVERLPEGFTETSLSVQAKSVLTFSDFALDSVIAHPEWLAELESASPQADEWRHYAGWLQEALAGVCDDASLMRELRFFRRRIMVRIAWAQTLSLVDDETILQQLSHLAETLIVGARDWLYAACCREWGTPCNPQGVPQPLLILGMGKLGGGELNFSSDIDLIFAWPEHGETRGGRRELDNAQFFTRLGQRLIKALDQPTMDGFVYRVDMRLRPFGDSGPLVLSFAALEDYYQEQGRDWERYAMVKARLMGDNDDAWSRELRAMLRPFVFRRYIDFSVIQSLRNMKGMIAREVRRRGLKDNIKLGAGGIREIEFIVQVFQLIRGGREPSLQSRSLLPTLDAIAALHLLPENDVAQLRVAYLFLRRLENLLQSINDEQTQTLPADDLNRARLAWGMKAENWPQLVGELTDHMANVRRVFNELIGDDEADTPQEEERSEPWREVWQDALQEDDSTPVLAHLADEERRQVLTLIADFRKELDKRPIGPRGRQVLDQLMPHLLADVCSREDAAVTLSRITPLLAGIVTRTTYLELLSEFPGALKHLIMLCAASPMIASQLARYPLLLDELLDPGTLYQPTATDAYRDELRQYLLRVPEEDEEQQLEALRQFKQAQLLRIAAADIAGTLPVMKVSDHLTWLAEAMIDAVVQQAWTQMVARYGQPAHLDERQGRGFAVVGYGKLGGWELGYSSDLDLIFLHDCPMDVMTNGEREIDGRQFYLRLAQRIMHLFSTRTSSGILYEVDARLRPSGAAGMLVTSADAFADYQQHEAWTWEHQALVRARVVYGDPQLTSQFDAVRRTIMTTARDGKTLQTEVREMREKMRAHLGNKHRDRFDIKADEGGITDIEFIAQYLVLRYAHEKPKLTRWSDNVRILELLAQNGIMDEHEAQALTVAYTTLRDELHHLALQELPGHVAQTCFSKERALVQASWRKWLVAV | not soluble
MTPPEERQMLRETVASLVAKHAGPAAVRAAMASDRGYDESLWRLLCEQVGAAALVIPEELGGAGGELADAAIVVQELGRALVPSPLLGTTLAELALLAAAKPDAQALTELAQGSAIGALVLDPDYVVNGDIADIVVAATSGQLTRWTRFSAQPVATMDPTRRLARLQSEETEPLCPDPGIADTAAILLAAEQIGAAERCLQLTVEYAKSRVQFGRPIGSFQALKHRMADLYVTIAAARAVVADACHAPTPTNAATARLAASEALSTAAAEGIQLHGGIAITWEHDMHLYFKRAHGSAQLLESPREVLRRLESEVWESP | not soluble
MTPRKPAVKKEVKEEEPGAPGKEGAAEGPLDPSGYNPAKNNYHPVEDACWKPGQKVPYLAVARTFEKIEEVSARLRMVETLSNLLRSVVALSPPDLLPVLYLSLNHLGPPQQGLELGVGDGVLLKAVAQATGRQLESVRAEAAEKGDVGLVAENSRSTQRLMLPPPPLTASGVFSKFRDIARLTGSASTAKKIDIIKGLFVACRHSEARFIARSLSGRLRLGLAEQSVLAALSQAVSLTPPGQEFPPAMVDAGKGKTAEARKTWLEEQGMILKQTFCEVPDLDRIIPVLLEHGLERLPEHCKLSPGIPLKPMLAHPTRGISEVLKRFEEAAFTCEYKYDGQRAQIHALEGGEVKIFSRNQEDNTGKYPDIISRIPKIKLPSVTSFILDTEAVAWDREKKQIQPFQVLTTRKRKEVDASEIQVQVCLYAFDLIYLNGESLVREPLSRRRQLLRENFVETEGEFVFATSLDTKDIEQIAEFLEQSVKDSCEGLMVKTLDVDATYEIAKRSHNWLKLKKDYLDGVGDTLDLVVIGAYLGRGKRAGRYGGFLLASYDEDSEELQAICKLGTGFSDEELEEHHQSLKALVLPSPRPYVRIDGAVIPDHWLDPSAVWEVKCADLSLSPIYPAARGLVDSDKGISLRFPRFIRVREDKQPEQATTSAQVACLYRKQSQIQNQQGEDSGSDPEDTY | soluble
MTPWLGLIVLLGSWSLGDWGAEACTCSPSHPQDAFCNSDIVIRAKVVGKKLVKEGPFGTLVYTIKQMKMYRGFTKMPHVQYIHTEASESLCGLKLEVNKYQYLLTGRVYDGKMYTGLCNFVERWDQLTLSQRKGLNYRYHLGCNCKIKSCYYLPCFVTSKNECLWTDMLSNFGYPGYQSKHYACIRQKGGYCSWYRGWAPPDKSIINATDP | not soluble
MTQAADILIAGGGLNGPALALALARNGFSVTVVDGRPAPQRAEPGFDGRAYALALASKRLLAALGLWDGLASQAQPILRVVTADGTTAGGPSPFVLAFDHAEIEEGPMGYLLEDRFLYAAFLAALEAEPRIRLVSGTTVEAQEVGPQGVTVTLSTGAQLSGRLLVGCDGRQSGTARRAGIRRSGWGYGQTALVTAIEHERPHEGTAWQYFLPGGPLAILPLPGGHRSSIVWSESDAAAAGIQRLPDADYLGALRPRFGDFLGSIRLAGDRFTYPLSLSLAHSFVAPRVALVGDAAHGVHPIAGQGLNLGLRDVAALAEVLTLAARRGEDVGSPLVLDRYQQWRRFDATALALGMDMVNRLFSNDNPVMRAGRDLSMGIVNALPGLRRGFIRQAAGLSGDLPRLLQGRPILEHHHHHH | not soluble
MTQAEIKLCSLLLQEHFGEIVEKIGVHLIRTGSQPLRVIAHDTGTSLDQVKKALCVLVQHNLVSYQVHKRGVVEYEAQCSRVLRMLRYPRYIYTTKTLYSDTGELIVEELLLNGKLTMSAVVKKVADRLTETMEDGKTMDYAEVSNTFVRLADTHFVQRCPSVPTTENSDPGPPPPAPTLVINEKDMYLVPKLSLIGKGKRRRSSDEDAAGEPKAKRPKYTTDNKEPIPDDGIYWQANLDRFHQHFRDQAIVSAVANRMDQTSSEIVRTMLRMSEITTSSSAPFTQPLSSNEIFRSLPVGYNISKQVLDQYLTLLADDPLEFVGKSGDSGGGMYVINLHKALASLATATLKSVVQERFGSRCARIFRLVLQKKHIEQKQVEDFAMIPAKEAKDMLYKMLSENFMSLQVGCQ | not soluble
MTQFNGKKIQEKIVSYCIDEVELDLITASDIAFHMTDWLNNLEDLVAFYKTPDEYSPEQLNNILMGFLYHVPNHTIAAAKLLLDVQVTDVFGVGVIADNKDE | not soluble
MTQHPFISRVAVRNYKSIGYCDVNLRPLTYLVGHNGAGKSNFMDALHFVCDALSYSLDSALNERGGINEVRRRSGGHPTHFALRVEFVMQSGQAGRYGFVIGALKNGGYEVQREECVVAGIGKGPFFRIEKGKLRDSSETTFPSVTADRLALVAASGLTAFRPVFDALTAMGFYNLNPKLMRELQKPQDGRLLRPAGENIASVIGHLEKVAPAQMALIQEYLHSVAPMVHGVERKPIGPMETLEFRQDMAGSKHPWRFLAQNMSDGTLRALGVLSALLQGNVDYSPTLIGIEEPETALHPAASAALREALVRASETTQVLVTSHSPDLLDDHSIDADAVLAVVSEAGETKVAPLDEGSRQVMRDHLFSAGELLRMNQLAPDRASLEQQDKAASGDLFGETESVLEHHHHHH | soluble
MTQITKFHGVFPPVPTIVNAQGELDKVGMATLLDHLIASKVNGVLLLGSGGEFCHMTNALRLETAEFCVRHINRRIPVLLGISSTSTQEVIEYGQHADRLEVDAVLVLNPYYARLTDEYIYHHFKTVANNIKSPVILYNFPALTGQDLSVDLITRLAQDHPNIIGIKDTVDNISHIREIINNVRPVRPDFVIFSGYDEYMMDTLILGGNGGIPATANFAPQLTCGIYRAWCEKEYETMFGLQRRLSALSTIYSLDSPFFGIIKKAIQLSGVDISTHVMPPVLPANEEHISNLKQILQRAGL | not soluble
MTQIVVGENEHIESALRRFKREVSKAGIFQDMRKHRHFETPIEKSKRKKLALHKQSKRRFRTLEHHHHHH | not soluble
